The labels stand for the following.
B2: GST-Sec2p (wild type) (natural protein, yeast, UniProt P17065 1-759, looked up)
chain: MDASEEAKRVSIQVTSLSTQLIESVDKQSHLEEQLNKSLKTIASQKAAIENYNQLKEDYNTLKRELSDRDDEVKRLREDIAKENELRTKAEEEADKLNKEVEDLTASLFDEANNMVADARKEKYAIEILNKRLTEQLREKDTLLDTLTLQLKNLKKVMHSLDNESTVTNNSNRYSTILSDSATSSSTSLNKVPTSYSLASQDIYSGIVYSPSISSIRYDISLYNEFLKFVAALPRCENIKATSTESKLIRRLVNDEIQPILKIDNASGIGWLVKKTLLSLIIDGLVVVEPLSGVNATYQIGYNSSSPAKQATSNMPKMFKFPLDSPPVAVHAACSFCGESRDDIIEHARMYILKTLHKTDDGKEQVTNTYPLCHWCLLKLRQTCEIFAFLRSLKVGAWHLEKLTTQNITKEDLEKFSEVTKHTKRDGRVSSQDKKTKRLSFMAGLGINSSTKNKPKMEIFSSETNAKPGQPTTNIQRAWLQLCKLRCILHWTHIGIWAVDDSISSKIGPLVEDDSDEDQNDAISVRLQDKALWKQDAKRPFSSSSAEESQKSDAFDFESGDMENEITGESSSDESSSDGSSTDNSTADSSSEDESSLADSTTSSADSSSPESIDNGEGDDTVTKDDKSSIKSANNNEENSDCGDKKGRSIIKKKAPQRKIQKKKLLQDLDDLEEQFREESAIDQTEFENAESNVKQNISSKRASSGDENSKKDNNEKTLKTNLTIGDKTQEQIGENSPSSGLHASSSNDDNFDDAQEQQ

The experiment “GST-Sec2p (wild type)” addresses B2. The experiment can be described thus: pull-down.
Experiment [1] has as its target T1, His6-tagged full-length Sec15 protein (yeast, UniProt P22224 1-910).
T1 sequence (looked up): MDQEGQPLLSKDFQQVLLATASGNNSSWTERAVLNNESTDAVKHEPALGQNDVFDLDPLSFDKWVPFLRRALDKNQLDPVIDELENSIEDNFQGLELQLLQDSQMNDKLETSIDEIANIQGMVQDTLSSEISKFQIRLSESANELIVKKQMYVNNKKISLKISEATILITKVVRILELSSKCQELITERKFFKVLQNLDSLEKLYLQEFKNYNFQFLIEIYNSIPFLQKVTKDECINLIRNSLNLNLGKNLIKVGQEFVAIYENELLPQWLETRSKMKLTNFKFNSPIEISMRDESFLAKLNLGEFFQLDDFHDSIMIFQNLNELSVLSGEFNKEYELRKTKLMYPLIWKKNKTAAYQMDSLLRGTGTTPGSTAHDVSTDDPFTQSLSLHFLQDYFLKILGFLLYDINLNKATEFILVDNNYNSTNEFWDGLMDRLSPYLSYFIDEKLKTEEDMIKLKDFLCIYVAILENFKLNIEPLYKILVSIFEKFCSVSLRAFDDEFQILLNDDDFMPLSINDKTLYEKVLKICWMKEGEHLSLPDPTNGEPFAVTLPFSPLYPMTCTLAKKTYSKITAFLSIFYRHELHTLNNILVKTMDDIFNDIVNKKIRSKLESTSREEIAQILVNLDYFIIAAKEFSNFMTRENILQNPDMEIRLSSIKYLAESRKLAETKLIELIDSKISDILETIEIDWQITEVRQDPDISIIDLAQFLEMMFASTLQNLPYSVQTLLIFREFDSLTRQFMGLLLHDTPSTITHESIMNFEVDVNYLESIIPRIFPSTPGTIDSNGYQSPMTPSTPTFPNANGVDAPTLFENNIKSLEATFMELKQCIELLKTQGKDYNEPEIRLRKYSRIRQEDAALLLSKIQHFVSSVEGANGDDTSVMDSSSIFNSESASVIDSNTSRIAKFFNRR
The experiment can be described thus: pull-down.

B1: Sec15p C-terminal fragment (a.a. 559–910) (domain or fragment, yeast, UniProt P22224 559-910, looked up)
chain: MTCTLAKKTYSKITAFLSIFYRHELHTLNNILVKTMDDIFNDIVNKKIRSKLESTSREEIAQILVNLDYFIIAAKEFSNFMTRENILQNPDMEIRLSSIKYLAESRKLAETKLIELIDSKISDILETIEIDWQITEVRQDPDISIIDLAQFLEMMFASTLQNLPYSVQTLLIFREFDSLTRQFMGLLLHDTPSTITHESIMNFEVDVNYLESIIPRIFPSTPGTIDSNGYQSPMTPSTPTFPNANGVDAPTLFENNIKSLEATFMELKQCIELLKTQGKDYNEPEIRLRKYSRIRQEDAALLLSKIQHFVSSVEGANGDDTSVMDSSSIFNSESASVIDSNTSRIAKFFNRR
With B1, the binding result with GST-Sec2p (wild type) is “binds”.
Take B2: in experiment [1], the binding result is recorded as “binds”.

The values above are taken from PMC2877039 (Developmental cell, 2010).
